T1: FcγRIIa type H (human, UniProt P12318 36-217)
T1 construct: also called FcγRIIaH; FcγRIIH
T1 sequence: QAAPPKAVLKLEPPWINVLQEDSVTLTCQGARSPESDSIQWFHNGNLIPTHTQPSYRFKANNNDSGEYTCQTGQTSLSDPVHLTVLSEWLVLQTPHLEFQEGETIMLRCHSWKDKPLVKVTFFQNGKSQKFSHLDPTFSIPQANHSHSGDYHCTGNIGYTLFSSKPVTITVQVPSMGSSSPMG

T2: FcγRIIb (human, UniProt P31994 43-217, limits assumed)
T2 construct: also called FcgRIIb; FcγIIB
T2 sequence: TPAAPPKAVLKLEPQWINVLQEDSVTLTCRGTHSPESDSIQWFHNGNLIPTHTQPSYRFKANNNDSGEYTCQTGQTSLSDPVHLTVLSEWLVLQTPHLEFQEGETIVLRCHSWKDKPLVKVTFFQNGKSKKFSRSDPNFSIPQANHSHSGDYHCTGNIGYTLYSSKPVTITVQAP

B1: IL6R-BP129/IL6R-L (antibody, human IgG1)
heavy: QVQLQESGPGLVKPSETLSLTCAVSGHSISHDHAWSWVRQPPGEGLEWIGFISYSGITNYNPSLQGRVTISRDNSKNTLYLQMNSLRAEDTAVYYCARSLARTTAMDYWGEGTLVTVSSASTKGPSVFPLAPSSKSTSGGTAALGCLVKDYFPEPVTVSWNSGALTSGVHTFPAVLQSSGLYSLSSVVTVPSSSLGTQTYICNVNHKPSNTKVDKKVEPKSCDKTHTCPPCPAPDLLGGDSVFLFPPKPKDTLMISRTPEVTCVVVDVSHEDPEVKFNWYVDGVEVHNAKTKPREEQDNSTYRVVSVLTVLHQDWLNGKEYKCKVSNKALPKPIEKTISKAKGQPREPQVYTLPPSRDELTKNQVSLTCLVKGFYPSDIAVEWESNGQPENNYKTTPPVLDSDGSFFLYSKLTVDKSRWQQGNVFSCSVMHEALHNHYTQESLSLSP
light: DIQMTQSPSSLSASVGDRVTITCRASQDISSYLNWYQQKPGKAPKLLIYYTSRLHSGVPSRFSGSGSGTDFTFTISSLQPEDIATYYCQQGNTLPYTFGQGTKVEIK
notes: IgG1; Fc variant of IL6R-B3; copies: 2 + 2
B2: IL6R-BP132/IL6R-L (antibody, human IgG1)
heavy: QVQLQESGPGLVKPSETLSLTCAVSGHSISHDHAWSWVRQPPGEGLEWIGFISYSGITNYNPSLQGRVTISRDNSKNTLYLQMNSLRAEDTAVYYCARSLARTTAMDYWGEGTLVTVSSASTKGPSVFPLAPSSKSTSGGTAALGCLVKDYFPEPVTVSWNSGALTSGVHTFPAVLQSSGLYSLSSVVTVPSSSLGTQTYICNVNHKPSNTKVDKKVEPKSCDKTHTCPPCPAPDLLGGDSVFLFPPKPKDTLMISRTPEVTCVVVDVSHEDPEVKFNWYVDGVEVHNAKTKPREEQYNSTYRVVSVLTVLHQDWLNGKEYKCKVSNAALPKPIEKTISKAKGQPREPQVYTLPPSRDELTKNQVSLTCLVKGFYPSDIAVEWESNGQPENNYKTTPPVLDSDGSFFLYSKLTVDKSRWQQGNVFSCSVMHEALHNHYTQESLSLSP
light: DIQMTQSPSSLSASVGDRVTITCRASQDISSYLNWYQQKPGKAPKLLIYYTSRLHSGVPSRFSGSGSGTDFTFTISSLQPEDIATYYCQQGNTLPYTFGQGTKVEIK
notes: as for B1
B3: IL6R-BP145/IL6R-L (antibody, human IgG1)
heavy: QVQLQESGPGLVKPSETLSLTCAVSGHSISHDHAWSWVRQPPGEGLEWIGFISYSGITNYNPSLQGRVTISRDNSKNTLYLQMNSLRAEDTAVYYCARSLARTTAMDYWGEGTLVTVSSASTKGPSVFPLAPSSKSTSGGTAALGCLVKDYFPEPVTVSWNSGALTSGVHTFPAVLQSSGLYSLSSVVTVPSSSLGTQTYICNVNHKPSNTKVDKKVEPKSCDKTHTCPPCPAPEYLGDDSVFLFPPKPKDTLMISRTPEVTCVVVDVSHEDPEVKFNWYVDGVEVHNAKTKPREEQYNSTYRVVSVLTVLHQDWLNGKEYKCKVSNKALPAPIEKTISKAKGQPREPQVYTLPPSRDELTKNQVSLTCLVKGFYPSDIAVEWESNGQPENNYKTTPPVLDSDGSFFLYSKLTVDKSRWQQGNVFSCSVMHEALHNHYTQESLSLSP
light: DIQMTQSPSSLSASVGDRVTITCRASQDISSYLNWYQQKPGKAPKLLIYYTSRLHSGVPSRFSGSGSGTDFTFTISSLQPEDIATYYCQQGNTLPYTFGQGTKVEIK
notes: as for B1
B4: IL6R-BP149/IL6R-L (antibody, human IgG1)
heavy: QVQLQESGPGLVKPSETLSLTCAVSGHSISHDHAWSWVRQPPGEGLEWIGFISYSGITNYNPSLQGRVTISRDNSKNTLYLQMNSLRAEDTAVYYCARSLARTTAMDYWGEGTLVTVSSASTKGPSVFPLAPSSKSTSGGTAALGCLVKDYFPEPVTVSWNSGALTSGVHTFPAVLQSSGLYSLSSVVTVPSSSLGTQTYICNVNHKPSNTKVDKKVEPKSCDKTHTCPPCPAPDYLGDDSVFLFPPKPKDTLMISRTPEVTCVVVDVSHEDPEVKFNWYVDGVEVHNAKTKPREEQDNSTYRVVSVLTVLHQDWLNGKEYKCKVSNAALPKPIEKTISKAKGQPREPQVYTLPPSRDELTKNQVSLTCLVKGFYPSDIAVEWESNGQPENNYKTTPPVLDSDGSFFLYSKLTVDKSRWQQGNVFSCSVMHEALHNHYTQESLSLSP
light: DIQMTQSPSSLSASVGDRVTITCRASQDISSYLNWYQQKPGKAPKLLIYYTSRLHSGVPSRFSGSGSGTDFTFTISSLQPEDIATYYCQQGNTLPYTFGQGTKVEIK
notes: as for B1
B5: IL6R-BP133/IL6R-L (antibody, human IgG1)
heavy: QVQLQESGPGLVKPSETLSLTCAVSGHSISHDHAWSWVRQPPGEGLEWIGFISYSGITNYNPSLQGRVTISRDNSKNTLYLQMNSLRAEDTAVYYCARSLARTTAMDYWGEGTLVTVSSASTKGPSVFPLAPSSKSTSGGTAALGCLVKDYFPEPVTVSWNSGALTSGVHTFPAVLQSSGLYSLSSVVTVPSSSLGTQTYICNVNHKPSNTKVDKKVEPKSCDKTHTCPPCPAPDYLGGDSVFLFPPKPKDTLMISRTPEVTCVVVDVSHEDPEVKFNWYVDGVEVHNAKTKPREEQYNSTYRVVSVLTVLHQDWLNGKEYKCKVSNKALPKPIEKTISKAKGQPREPQVYTLPPSRDELTKNQVSLTCLVKGFYPSDIAVEWESNGQPENNYKTTPPVLDSDGSFFLYSKLTVDKSRWQQGNVFSCSVMHEALHNHYTQESLSLSP
light: DIQMTQSPSSLSASVGDRVTITCRASQDISSYLNWYQQKPGKAPKLLIYYTSRLHSGVPSRFSGSGSGTDFTFTISSLQPEDIATYYCQQGNTLPYTFGQGTKVEIK
notes: as for B1
B6: IL6R-BP148/IL6R-L (antibody, human IgG1)
heavy: QVQLQESGPGLVKPSETLSLTCAVSGHSISHDHAWSWVRQPPGEGLEWIGFISYSGITNYNPSLQGRVTISRDNSKNTLYLQMNSLRAEDTAVYYCARSLARTTAMDYWGEGTLVTVSSASTKGPSVFPLAPSSKSTSGGTAALGCLVKDYFPEPVTVSWNSGALTSGVHTFPAVLQSSGLYSLSSVVTVPSSSLGTQTYICNVNHKPSNTKVDKKVEPKSCDKTHTCPPCPAPDYLGDDSVFLFPPKPKDTLMISRTPEVTCVVVDVSHEDPEVKFNWYVDGVEVHNAKTKPREEQYNSTYRVVSVLTVLHQDWLNGKEYKCKVSNAALPKPIEKTISKAKGQPREPQVYTLPPSRDELTKNQVSLTCLVKGFYPSDIAVEWESNGQPENNYKTTPPVLDSDGSFFLYSKLTVDKSRWQQGNVFSCSVMHEALHNHYTQESLSLSP
light: DIQMTQSPSSLSASVGDRVTITCRASQDISSYLNWYQQKPGKAPKLLIYYTSRLHSGVPSRFSGSGSGTDFTFTISSLQPEDIATYYCQQGNTLPYTFGQGTKVEIK
notes: as for B1
B7: IL6R-BP143/IL6R-L (antibody, human IgG1)
heavy: QVQLQESGPGLVKPSETLSLTCAVSGHSISHDHAWSWVRQPPGEGLEWIGFISYSGITNYNPSLQGRVTISRDNSKNTLYLQMNSLRAEDTAVYYCARSLARTTAMDYWGEGTLVTVSSASTKGPSVFPLAPSSKSTSGGTAALGCLVKDYFPEPVTVSWNSGALTSGVHTFPAVLQSSGLYSLSSVVTVPSSSLGTQTYICNVNHKPSNTKVDKKVEPKSCDKTHTCPPCPAPEYLGGDSVFLFPPKPKDTLMISRTPEVTCVVVDVSHEDPEVKFNWYVDGVEVHNAKTKPREEQYNSTYRVVSVLTVLHQDWLNGKEYKCKVSNAALPAPIEKTISKAKGQPREPQVYTLPPSRDELTKNQVSLTCLVKGFYPSDIAVEWESNGQPENNYKTTPPVLDSDGSFFLYSKLTVDKSRWQQGNVFSCSVMHEALHNHYTQESLSLSP
light: DIQMTQSPSSLSASVGDRVTITCRASQDISSYLNWYQQKPGKAPKLLIYYTSRLHSGVPSRFSGSGSGTDFTFTISSLQPEDIATYYCQQGNTLPYTFGQGTKVEIK
notes: as for B1
B8: IL6R-BP144/IL6R-L (antibody, human IgG1)
heavy: QVQLQESGPGLVKPSETLSLTCAVSGHSISHDHAWSWVRQPPGEGLEWIGFISYSGITNYNPSLQGRVTISRDNSKNTLYLQMNSLRAEDTAVYYCARSLARTTAMDYWGEGTLVTVSSASTKGPSVFPLAPSSKSTSGGTAALGCLVKDYFPEPVTVSWNSGALTSGVHTFPAVLQSSGLYSLSSVVTVPSSSLGTQTYICNVNHKPSNTKVDKKVEPKSCDKTHTCPPCPAPELLGDDSVFLFPPKPKDTLMISRTPEVTCVVVDVSHEDPEVKFNWYVDGVEVHNAKTKPREEQYNSTYRVVSVLTVLHQDWLNGKEYKCKVSNAALPAPIEKTISKAKGQPREPQVYTLPPSRDELTKNQVSLTCLVKGFYPSDIAVEWESNGQPENNYKTTPPVLDSDGSFFLYSKLTVDKSRWQQGNVFSCSVMHEALHNHYTQESLSLSP
light: DIQMTQSPSSLSASVGDRVTITCRASQDISSYLNWYQQKPGKAPKLLIYYTSRLHSGVPSRFSGSGSGTDFTFTISSLQPEDIATYYCQQGNTLPYTFGQGTKVEIK
notes: as for B1

Experiments:
Assay in all cases: SPR (Biacore), bound amount, IL6R-BF648/IL6R-L = 100
FcγRIa = target: T3, FcγRIa (human, UniProt P12314 16-292, limits assumed)
T3 construct: also called FcgRIa; CD64
T3 sequence (P12314 16-292 limits assumed): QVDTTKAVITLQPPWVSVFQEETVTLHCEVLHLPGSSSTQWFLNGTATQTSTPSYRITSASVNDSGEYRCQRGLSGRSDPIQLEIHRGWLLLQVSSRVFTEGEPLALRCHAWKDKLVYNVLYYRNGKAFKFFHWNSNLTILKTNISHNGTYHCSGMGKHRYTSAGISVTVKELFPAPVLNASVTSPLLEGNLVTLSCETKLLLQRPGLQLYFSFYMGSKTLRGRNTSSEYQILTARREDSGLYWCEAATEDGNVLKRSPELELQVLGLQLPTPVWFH
Description: (§1) According to the following method, relative binding activities were calculated for the results of analyzing interactions with the respective FcγRs.

FcγRIIa type H = target: T1, FcγRIIa type H
Description: as §1

FcγRIIb = target: T2, FcγRIIb
Description: as §1

FcγRIIIa type V = target: T4, FcγRIIIa type V (human, UniProt P08637 17-208, limits assumed)
T4 construct: also called FcγRIIIaV; FcgRIIIaV
T4 sequence (P08637 other isoform, or with tags, fused parts or gaps limits assumed): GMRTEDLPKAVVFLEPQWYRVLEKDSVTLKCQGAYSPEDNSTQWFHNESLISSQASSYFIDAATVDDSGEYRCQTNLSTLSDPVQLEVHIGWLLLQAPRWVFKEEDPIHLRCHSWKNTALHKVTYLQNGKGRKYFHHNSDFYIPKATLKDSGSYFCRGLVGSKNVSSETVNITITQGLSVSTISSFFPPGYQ
Description: as §1

Binder	relative binding activity (FcγRIa)	relative binding activity (FcγRIIa type H)	relative binding activity (FcγRIIb)	relative binding activity (FcγRIIIa type V)
B1	68 % of control	98 % of control	138 % of control	95 % of control
B2	91 % of control	130 % of control	150 % of control	120 % of control
B3	41 % of control	224 % of control	152 % of control	153 % of control
B4	29 % of control	401 % of control	173 % of control	186 % of control
B5	41 % of control	151 % of control	137 % of control	114 % of control
B6	33 % of control	462 % of control	176 % of control	227 % of control
B7	86 % of control	143 % of control	133 % of control	114 % of control
B8	64 % of control	108 % of control	121 % of control	128 % of control
